What was measured:
[1] = tested on: VpsT (Vibrio cholerae C7258?); assay: EMSA
[2] = tested on: H-NS (Vibrio cholerae C7258?); assay: EMSA

Row | Substance | Kd [1] [nM] | Kd [2] [nM]
1 | vpsA promoter -223 to -139 | 42.6 | 138
2 | vpsL promoter -262 to -185 | 35.4 | 204

From PMC4617317
